Key:
rabbit IL-17 (rabbit) [1] = test: Biacore SPR, 3 experiments; unit not printed in Table 10
rabbit IL-17 (rabbit) [2] = test: cell-based or functional assay
mouse IL-17 (mouse) = mouse IL-17 (mouse) (UniProt Q62386); test: assay not stated (Table 5, 'Source And Binding Information')
mouse IL-17 (mouse), sequence (Q62386 26-158 limits assumed): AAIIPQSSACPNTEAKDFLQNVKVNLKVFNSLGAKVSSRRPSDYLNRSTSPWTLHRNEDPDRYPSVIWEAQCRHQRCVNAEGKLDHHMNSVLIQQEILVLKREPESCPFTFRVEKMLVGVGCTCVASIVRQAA

ABBV-257 anti-human TNF and IL-17 DVD-Ig binding protein (bispecific antibody), sequence (heavy): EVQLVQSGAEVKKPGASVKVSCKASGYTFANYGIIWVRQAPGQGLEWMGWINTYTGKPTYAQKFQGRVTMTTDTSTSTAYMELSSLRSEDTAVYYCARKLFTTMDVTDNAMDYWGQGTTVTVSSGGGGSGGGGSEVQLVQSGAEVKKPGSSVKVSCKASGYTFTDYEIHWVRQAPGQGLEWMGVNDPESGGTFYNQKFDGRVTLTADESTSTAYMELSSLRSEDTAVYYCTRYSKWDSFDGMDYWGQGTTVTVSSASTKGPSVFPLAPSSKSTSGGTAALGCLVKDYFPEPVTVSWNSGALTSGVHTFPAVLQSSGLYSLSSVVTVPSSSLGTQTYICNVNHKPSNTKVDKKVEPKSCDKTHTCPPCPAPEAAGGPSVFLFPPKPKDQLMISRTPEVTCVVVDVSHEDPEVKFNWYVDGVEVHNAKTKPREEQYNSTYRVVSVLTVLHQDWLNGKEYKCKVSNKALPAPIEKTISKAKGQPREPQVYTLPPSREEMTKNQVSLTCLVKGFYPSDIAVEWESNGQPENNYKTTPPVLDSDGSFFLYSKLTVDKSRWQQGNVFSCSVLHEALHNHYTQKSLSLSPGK
ABBV-257 anti-human TNF and IL-17 DVD-Ig binding protein (bispecific antibody), sequence (light): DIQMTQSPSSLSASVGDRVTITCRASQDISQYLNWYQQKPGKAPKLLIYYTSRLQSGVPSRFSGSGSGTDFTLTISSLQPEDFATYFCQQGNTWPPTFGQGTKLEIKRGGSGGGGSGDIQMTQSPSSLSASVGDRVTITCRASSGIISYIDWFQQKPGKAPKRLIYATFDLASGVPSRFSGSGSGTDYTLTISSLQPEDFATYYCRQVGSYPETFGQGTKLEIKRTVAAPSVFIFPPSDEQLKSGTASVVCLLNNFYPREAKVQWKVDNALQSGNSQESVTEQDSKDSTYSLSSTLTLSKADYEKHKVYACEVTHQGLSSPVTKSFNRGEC

Row | Kd (rabbit IL-17 (rabbit) [1]) [nM] | IC50, in vitro neutralization assay (In-Vitro Potency) (rabbit IL-17 (rabbit) [2]) [nM] | IC50 (mouse IL-17 (mouse)) [nM] | Substance
1 | 3.3 | 11.4 |  | ABBV-257 anti-human TNF and IL-17 DVD-Ig binding protein (bispecific antibody)
2 |  |  | 0.7 | MAB421 anti-IL-17 antibody
